Test results taken from patent US20240033341A1 (CALIFORNIA INSTITUTE OF TECHNOLOGY, published 2024).

What was measured:
CNE20 N276A = assay: Env ELISA, IgG dilution series on SOSIP trimer, area under the binding curve
CE0217 (Autologous) = target: T1, CE0217 (Autologous); assay: as above
T1 construct: also called CE0217 SOSIP

CNE20 = target: T2, CNE20; assay: as above
T2 construct: also called CNE20 SOSIP

BG505 = assay: as above
IGT2 SOSIP = target: T3, IGT2 SOSIP (HIV-1 (clade C strain 426c, engineered)); assay: SPR with SOSIP (FIG. 6I), ELISA (FIG. 1E)
T3 construct: also called SOSIP version of IGT2

IGT2 gp120 [1] = target: T4, IGT2 gp120 (HIV-1 (clade C strain 426c, engineered)); assay: ELISA with gp120 (FIG. 1E, FIG. 6J)
426c.TM4 gp120 = 426c.TM4 gp120 (HIV-1 (clade C strain 426c, engineered)); assay: ELISA, gp120 coated on the plate, IgG titrated
IGT2 gp120 [2] = target: T4, IGT2 gp120; assay: ELISA, gp120 coated on the plate, IgG titrated

Binder	binding result (CNE20 N276A)	binding result (CE0217 (Autologous))	binding result (CNE20)	binding result (BG505)	binding result (IGT2 SOSIP)	binding result (IGT2 gp120 [1])	binding result (426c.TM4 gp120)	binding result (IGT2 gp120 [2])
IO-010 (antibody, V domains shown, also called 10-010) VH: QVQLVQSGAEVKKPGASVTVSCKASGYTFTGYHLHWVRQAPGQGLEWMGWINPFRGAIGYAQKFRGRVTMTRDTSIITAYMELRGLRSDDTAVYFCAREMFDSDDEWSPWRGMVAWGQGTLVTVSS VL: QSALTQPASVSGSPGQSITISCTGTSSDIGGYNLVSWYQQHPGKAPKLMIYDVNKRPSGVSNRFSGSKSGNTASLTISGFQAEDEADYYCCSYADTLVFGGGTKLTVL	binds	binds	binds	binds	–	–	–	–
IO-050 (antibody, V domains shown) VH: QVQLVQSGAEVKKPGASVRVSCKASGYTFTDYEIHWVRQAPGQGLEWMGWINPFRGAVKYRQKFQGRVTMTRDPSITTAYMELSRLRSDDTARYYCAREMFDSDDEWSPWRGMVAWGQGTLVTVSS VL: QSALTQPASVSGSPGQSITISCTGTSSDVGSYNLVSWYQQHPGKAPKLMIYEVSRRPSGVSNRFSGSKSGNTASLTISGFQAEDEADYYCCSYADTLIFGGGTKLTVL	binds	binds	binds	no binding	–	–	–	–
IO-008 (antibody, V domains shown) VH: QVQLVQSGAEVKKPGASVTVSCKASGYTFTGYELHWVRQAPGQGLEWMGWINPYRGAVKYAQKFQGRVTMTRDTSISTAYMVLNGLRSDDTAVYYCARDMFDSSDEWSPWRGMVAWGQGTPVTVSS VL: QSALTQPASVSGSPGQSITISCTGTSSDVGSYDLVSWYQQHPGKAPKLMIYEVSKRPSGVSNRFSGSKSGNTASLTISGLQAEDEADYYCCSYADSLVFGGGTKVTGL	binds	–	binds	binds	–	–	–	–
IO-017 (antibody, V domains shown, also called 10-017) VH: QVQLVQSGAEVKKPGASVTVSCKASGYTFTGYHLHWVRQAPGQGLEWMGWINPFRGAIGYAQKFRGRVTMTRDTSINTAYMELRGLRSDDTAVYFCAREMFDSDDDWSPWRGMVAWGQGTLVTVSS VL: QSALTQPASVSGSPGQSITISCTGTSSDIGGYDLVSWYQQHPGKAPKLMIYDVNKRPSGVSNRFSGSKSGNTASLTISGFQAEDEADYYCCSYADTLVFGGGTKLTVL	binds	binds	no binding	–	–	–	–	–
IO-003 (antibody, V domains shown) VH: QVQLVQSGAEVKKPGASVTVSCKASGYTFTDYFIHWVRQAPGQGLEWMGWINPFRGAVDYAQKFRGRVTMTRDTSITTAYMELSRLRSDDTAVYYCARAMFDSSDEWSPWHGLVAWGQGTLVTVSS VL: QSALTQPASVSGSPGQSITISCTGTSRDIGSFNLVSWYQQHPGKAPKLMIYDVSKRPSGVSNRFSGSKSDNMASLIISGFQAEDEAEYFCCSFAGSLAFGGGTKLTVL	binds	–	binds	binds	–	–	–	–
IOMA IgG (antibody, V domains shown, Mature CD4bs bNAb; also called mature IOMA) VH: EVQLVESGAQVKKPGASVTVSCTASGYKFTGYHMHWVRQAPGRGLEWMGWINPFRGAVKYPQNFRGRVSMTRDTSMEIFYMELSRLTSDDTAVYYCAREMFDSSADWSPWRGMVAWGQGTLVTVSS VL: QSALTQPASVSGSPGQSITISCAGSSRDVGGFDLVSWYQQHPGKAPKLIIYEVNKRPSGISSRFSASKSGNTASLTISGLQEEDEAHYYCYSYADGVAFGGGTKLTVLG	binds	binds	binds	binds	–	–	–	–
3BNC60 iGL IgG (antibody, V domains shown) VH: not shown VL: DIQMTQSPSSLSASVGDRVTITCQASQDISNYLNWYQQKPGKAPKLLIYDASNLETGVPSRFSGSGSGTDFTFTISSLQPEDIATYYCQQYEFIGPGTKVDIKR	–	–	–	–	binds	binds	binds	–
VRC01 iGL IgG (antibody, V domains shown) VH: not shown VL: EIVLTQSPATLSLSPGERATLSCRASQSVSSYLAWYQQKPGQAPRLLIYDASNRATGIPARFSGSGSGTDFTLTISSLEPEDFAVYYCQQYEFFGQGTKLEIKR	–	–	–	–	binds	–	–	binds
